In publication PMC9482650, “Quantitative fragmentomics allow affinity mapping of interactomes” (Nature Communications, 2022):
Each block holds one binder with its values, some of them ahead of it.

Legend:
Experiment in all cases: holdup assay
Design in all cases: key: below the threshold = too weak to quantify, mostly under pKd 3.1 to 4
DFNB31_3, Q9P202 = molecular target: T1, DFNB31_3, Q9P202
T1 sequence (Q9P202 811-907, limits assumed, looked up): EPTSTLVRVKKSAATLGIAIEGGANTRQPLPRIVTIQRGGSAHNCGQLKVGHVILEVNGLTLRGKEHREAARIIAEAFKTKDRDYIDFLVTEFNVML

GRIP2_7, Q9C0E4 = molecular target: GRIP2_7, Q9C0E4
Sequence of GRIP2_7, Q9C0E4 (Q9C0E4 934-1023): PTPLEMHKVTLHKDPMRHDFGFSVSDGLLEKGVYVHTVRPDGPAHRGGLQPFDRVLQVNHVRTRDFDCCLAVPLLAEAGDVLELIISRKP

TX1BP3, O14907 = molecular target: T2, TX1BP3, O14907
T2 sequence (O14907 10-122, limits assumed, looked up): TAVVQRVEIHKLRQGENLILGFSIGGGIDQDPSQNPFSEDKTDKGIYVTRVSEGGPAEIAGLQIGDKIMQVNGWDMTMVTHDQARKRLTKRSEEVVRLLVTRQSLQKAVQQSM

LRRC7, Q96NW7 = molecular target: T3, LRRC7, Q96NW7
T3 sequence (Q96NW7 1440-1537, limits assumed, looked up): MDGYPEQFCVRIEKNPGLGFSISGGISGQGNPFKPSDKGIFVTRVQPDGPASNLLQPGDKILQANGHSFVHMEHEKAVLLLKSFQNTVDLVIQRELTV

MAGI2_2, Q86UL8 = molecular target: MAGI2_2, Q86UL8
Sequence of MAGI2_2, Q86UL8 (Q86UL8 410-522): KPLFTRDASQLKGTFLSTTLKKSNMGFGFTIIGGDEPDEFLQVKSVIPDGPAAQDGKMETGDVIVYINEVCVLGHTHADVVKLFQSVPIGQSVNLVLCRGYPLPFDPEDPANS

TJP3_3, O95049 = molecular target: T4, TJP3_3, O95049
T4 sequence (O95049 375-456, limits assumed, looked up): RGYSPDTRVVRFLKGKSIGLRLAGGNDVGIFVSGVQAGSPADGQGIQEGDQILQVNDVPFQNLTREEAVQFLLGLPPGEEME

DLG3_2, Q92796 = molecular target: T5, DLG3_2, Q92796
T5 sequence (Q92796 221-321, limits assumed, looked up): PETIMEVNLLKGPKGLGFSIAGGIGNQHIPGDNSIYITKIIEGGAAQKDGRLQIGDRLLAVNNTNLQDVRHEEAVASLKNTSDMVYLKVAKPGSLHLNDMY

AHNAK1, Q09666 = molecular target: AHNAK1, Q09666
Sequence of AHNAK1, Q09666 (Q09666 4-100): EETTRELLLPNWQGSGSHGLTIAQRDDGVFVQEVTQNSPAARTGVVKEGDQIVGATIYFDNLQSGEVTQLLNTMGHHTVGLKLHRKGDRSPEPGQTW

PCLO, Q9Y6V0 = molecular target: T6, PCLO, Q9Y6V0
T6 sequence (Q9Y6V0 4491-4600, limits assumed, looked up): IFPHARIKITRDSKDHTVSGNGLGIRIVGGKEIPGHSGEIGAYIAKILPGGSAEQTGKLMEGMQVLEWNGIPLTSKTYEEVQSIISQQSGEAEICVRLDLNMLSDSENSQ

HTRA3, P83110 = molecular target: T7, HTRA3, P83110
T7 sequence (P83110 354-453, limits assumed, looked up): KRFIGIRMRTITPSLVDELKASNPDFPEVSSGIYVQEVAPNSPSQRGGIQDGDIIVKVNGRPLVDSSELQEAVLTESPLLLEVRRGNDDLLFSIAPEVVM

ARHGEF11, O15085 = molecular target: T8, ARHGEF11, O15085
T8 sequence (O15085 42-136, limits assumed, looked up): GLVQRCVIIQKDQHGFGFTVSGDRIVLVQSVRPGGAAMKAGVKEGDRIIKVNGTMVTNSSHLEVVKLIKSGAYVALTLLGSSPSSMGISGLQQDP

ARHGAP21, Q5T5U3 = molecular target: T9, ARHGAP21, Q5T5U3
T9 sequence (Q5T5U3 45-169, limits assumed, looked up): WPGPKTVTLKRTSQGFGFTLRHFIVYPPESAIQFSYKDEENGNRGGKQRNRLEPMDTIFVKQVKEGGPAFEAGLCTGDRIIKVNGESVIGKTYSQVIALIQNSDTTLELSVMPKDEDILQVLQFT

ARHGEF12, Q9NZN5-2 = molecular target: ARHGEF12, Q9NZN5-2
Sequence of ARHGEF12, Q9NZN5-2 (Q9NZN5 other isoform, or with tags, fused parts or gaps): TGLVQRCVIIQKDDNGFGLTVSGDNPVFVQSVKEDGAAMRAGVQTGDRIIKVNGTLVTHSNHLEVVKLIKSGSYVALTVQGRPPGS

GRIP2_3, Q9C0E4 = molecular target: GRIP2_3, Q9C0E4
Sequence of GRIP2_3, Q9C0E4 (Q9C0E4 238-339): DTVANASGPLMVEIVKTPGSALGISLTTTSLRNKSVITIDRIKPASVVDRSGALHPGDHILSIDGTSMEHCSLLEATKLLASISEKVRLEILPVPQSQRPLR

MAGI2_5, Q86UL8 = molecular target: MAGI2_5, Q86UL8
Sequence of MAGI2_5, Q86UL8 (Q86UL8 915-1017): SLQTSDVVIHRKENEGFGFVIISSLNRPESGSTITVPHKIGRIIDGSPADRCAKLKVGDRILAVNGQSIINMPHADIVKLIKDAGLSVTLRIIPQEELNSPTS

DFNB31_1, Q9P202 = molecular target: T10, DFNB31_1, Q9P202
T10 sequence (Q9P202 135-233, limits assumed, looked up): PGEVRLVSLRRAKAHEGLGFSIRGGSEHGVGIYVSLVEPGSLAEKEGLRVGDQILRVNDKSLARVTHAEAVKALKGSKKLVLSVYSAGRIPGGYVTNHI

SYNJ2BP, P57105 = molecular target: T11, SYNJ2BP, P57105
T11 sequence (P57105 8-110, limits assumed, looked up): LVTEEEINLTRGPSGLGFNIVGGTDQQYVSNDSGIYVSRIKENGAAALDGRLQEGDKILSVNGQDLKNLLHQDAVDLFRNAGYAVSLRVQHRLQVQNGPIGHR

GRIP2_6, Q9C0E4 = molecular target: GRIP2_6, Q9C0E4
Sequence of GRIP2_6, Q9C0E4 (Q9C0E4 648-740): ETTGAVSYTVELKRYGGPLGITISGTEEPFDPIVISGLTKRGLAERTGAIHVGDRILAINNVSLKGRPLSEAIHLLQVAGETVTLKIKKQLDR

GORASP1, Q9BQQ3 = molecular target: GORASP1, Q9BQQ3
Sequence of GORASP1, Q9BQQ3 (Q9BQQ3 1-208): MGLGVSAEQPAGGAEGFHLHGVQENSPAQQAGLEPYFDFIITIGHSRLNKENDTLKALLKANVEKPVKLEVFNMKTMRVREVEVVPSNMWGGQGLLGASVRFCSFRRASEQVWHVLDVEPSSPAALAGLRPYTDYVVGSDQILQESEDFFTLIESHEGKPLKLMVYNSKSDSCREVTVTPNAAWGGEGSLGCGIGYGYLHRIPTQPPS

APBA2_2, Q99767 = molecular target: T12, APBA2_2, Q99767
T12 sequence (Q99767 654-744, limits assumed, looked up): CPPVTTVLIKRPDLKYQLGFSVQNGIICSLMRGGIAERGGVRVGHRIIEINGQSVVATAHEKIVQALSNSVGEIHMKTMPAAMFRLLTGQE

DFNB31_2, Q9P202 = molecular target: T13, DFNB31_2, Q9P202
T13 sequence (Q9P202 274-371, limits assumed, looked up): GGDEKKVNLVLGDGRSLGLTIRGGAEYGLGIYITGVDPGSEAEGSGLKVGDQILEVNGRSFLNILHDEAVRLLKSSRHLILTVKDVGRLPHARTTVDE

GIPC2, Q8TF65 = molecular target: GIPC2, Q8TF65
Sequence of GIPC2, Q8TF65 (Q8TF65 112-203): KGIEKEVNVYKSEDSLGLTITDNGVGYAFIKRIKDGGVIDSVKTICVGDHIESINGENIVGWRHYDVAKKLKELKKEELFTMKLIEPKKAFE

DLG1_2, Q12959 = molecular target: DLG1_2, Q12959
Sequence of DLG1_2, Q12959 (Q12959 314-412): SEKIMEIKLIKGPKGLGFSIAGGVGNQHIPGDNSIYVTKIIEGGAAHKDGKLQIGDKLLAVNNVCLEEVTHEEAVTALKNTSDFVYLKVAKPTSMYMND

[1] = plain residues with an end cap or a label only (N-terminal biotin on a linker: ahx)
[2] = plain residues with an end cap or a label only (N-terminal biotin on a linker: ttds)

- pKd (DFNB31_3, Q9P202; [1]): below the threshold
- pKd (GRIP2_7, Q9C0E4; [1]): below the threshold
- pKd (TX1BP3, O14907; [1]): below the threshold
- pKd (LRRC7, Q96NW7; [1]): below the threshold
- pKd (MAGI2_2, Q86UL8; [1]): below the threshold
- pKd (TJP3_3, O95049; [1]): below the threshold
- pKd (DLG3_2, Q92796; [1]): below the threshold
- pKd (AHNAK1, Q09666; [1]): below the threshold
- pKd (PCLO, Q9Y6V0; [1]): below the threshold
- pKd (HTRA3, P83110; [1]): below the threshold
- pKd (ARHGEF11, O15085; [1]): below the threshold
- pKd (ARHGAP21, Q5T5U3; [1]): 3.5
- pKd (ARHGEF12, Q9NZN5-2; [1]): below the threshold
- pKd (GRIP2_3, Q9C0E4; [1]): below the threshold
- pKd (MAGI2_5, Q86UL8; [1]): 3.53
- pKd (DFNB31_1, Q9P202; [1]): 3.66
- pKd (SYNJ2BP, P57105; [1]): below the threshold
- pKd (GRIP2_6, Q9C0E4; [1]): below the threshold
- pKd (GORASP1, Q9BQQ3; [1]): below the threshold
- pKd (APBA2_2, Q99767; [1]): below the threshold
- pKd (DFNB31_2, Q9P202; [1]): below the threshold
- pKd (GIPC2, Q8TF65; [1]): below the threshold
- pKd (DLG1_2, Q12959; [1]): below the threshold
B1: SHKBP1, Q8TBC3 (peptide)
chain: PKMKLNETSF

- pKd (DFNB31_3, Q9P202; [1]): below the threshold
- pKd (GRIP2_7, Q9C0E4; [1]): below the threshold
- pKd (TX1BP3, O14907; [1]): below the threshold
- pKd (LRRC7, Q96NW7; [1]): below the threshold
- pKd (MAGI2_2, Q86UL8; [1]): below the threshold
- pKd (TJP3_3, O95049; [1]): below the threshold
- pKd (DLG3_2, Q92796; [1]): 4
- pKd (AHNAK1, Q09666; [1]): below the threshold
- pKd (PCLO, Q9Y6V0; [1]): below the threshold
- pKd (HTRA3, P83110; [1]): below the threshold
- pKd (ARHGEF11, O15085; [1]): 4.06
- pKd (ARHGAP21, Q5T5U3; [1]): below the threshold
- pKd (ARHGEF12, Q9NZN5-2; [1]): 3.83
- pKd (GRIP2_3, Q9C0E4; [1]): below the threshold
- pKd (MAGI2_5, Q86UL8; [1]): 4.38
- pKd (DFNB31_1, Q9P202; [1]): below the threshold
- pKd (SYNJ2BP, P57105; [1]): 3.74
- pKd (GRIP2_6, Q9C0E4; [1]): below the threshold
- pKd (GORASP1, Q9BQQ3; [1]): below the threshold
- pKd (APBA2_2, Q99767; [1]): below the threshold
- pKd (DFNB31_2, Q9P202; [1]): below the threshold
- pKd (GIPC2, Q8TF65; [1]): below the threshold
- pKd (DLG1_2, Q12959; [1]): 4.01
B2: RAPGEF6, Q8TEU7 (peptide)
chain: ADENEQVSAV

- pKd (DFNB31_3, Q9P202; [2]): below the threshold
- pKd (GRIP2_7, Q9C0E4; [2]): below the threshold
- pKd (TX1BP3, O14907; [2]): 4.44
- pKd (LRRC7, Q96NW7; [2]): below the threshold
- pKd (MAGI2_2, Q86UL8; [2]): 5.87
- pKd (TJP3_3, O95049; [2]): below the threshold
- pKd (DLG3_2, Q92796; [2]): 5.43
- pKd (AHNAK1, Q09666; [2]): 3.56
- pKd (PCLO, Q9Y6V0; [2]): below the threshold
- pKd (HTRA3, P83110; [2]): below the threshold
- pKd (ARHGEF11, O15085; [2]): 4.23
- pKd (ARHGAP21, Q5T5U3; [2]): below the threshold
- pKd (ARHGEF12, Q9NZN5-2; [2]): 3.74
- pKd (GRIP2_3, Q9C0E4; [2]): below the threshold
- pKd (MAGI2_5, Q86UL8; [2]): 4.56
- pKd (DFNB31_1, Q9P202; [2]): below the threshold
- pKd (SYNJ2BP, P57105; [2]): 5.2
- pKd (GRIP2_6, Q9C0E4; [2]): below the threshold
- pKd (GORASP1, Q9BQQ3; [2]): below the threshold
- pKd (APBA2_2, Q99767; [2]): below the threshold
- pKd (DFNB31_2, Q9P202; [2]): below the threshold
- pKd (GIPC2, Q8TF65; [2]): below the threshold
- pKd (DLG1_2, Q12959; [2]): 5.78
B3: NET1, Q7Z628 (peptide)
chain: SGGKRKETLV
